The record followed here is patent US5310882A, “Somatotropins with alterations in the α-helix 3 region” (priority 1990, dated 1994).

Data set [1] can be described thus: Solution stability profile of rpST mutant proteins (solubility in vitro at 43° C.). Format: physicochemical. The note with it: pH 7.4. The protocol: The procedure described to determine stability profiles is as follows. […] This is filtered through a millipore sterile Millex-0.22 μm filter unit and 0.1 ml aliquots placed into tubes. These are placed in a 43° C. oven and removed at the required intervals. The contents are then diluted with phosphate buffered saline. The supernatant is assayed for monomer and dimer content by HPLC. A mass balance is done. Any precipitated material is recorded. Results are compared with the initial concentrations and a stability profile documented.

The subject of data set [2] is hypophysectomized (hypox) rat. The data set is described as follows: Hypox rat test for growth enhancement. Format: in vivo. Particulars: growth over a period such as 10 days; relative to rpST positive control. The protocol: The efficacy of the recombinant animal somatotropin derivatives of the present invention for altering the growth rate of animals is determined utilizing the hypophysectomized (hypox) rat assay. […] The response measured is growth over a period of time such as 10 days and is presented in Table IV as percent of the biological activity of the rpST positive control, which is included in every trial.

In data set [3] the test system is somatotropin receptor from purified liver membranes. Nature of the data set: Liver radio-receptor assay (RRA), competition with 125I-rpST. The note with it: competition with 125I-rpST for binding; percent rpST binding.

B1: L115A + A34: rpST with leucine 115 changed to alanine, A34 background (protein, UniProt P01248 27-216, looked up, variant L115A)
Somatotropin: FPAMPLSSLFANAVLRAQHLHQLAADTYKEFERAYIPEGQRYSIQNAQAAFCFSETIPAPTGKDEAQQRSDVELLRFSLLLIQSWLGPVQFLSRVFTNSLVFGTSDRVYEKLKDAEEGIQALMRELEDGSPRAGQILKQTYDKFDTNLRSDDALLKNYGLLSCFKKDLHKAETYLRVMKCRRFVESSCAF
modifications: A34 background
notes: rpST with leucine 115 changed to alanine, A34 background
Turning to B1, the “% Soluble” value in data set [1] turned out to be 0%. In addition, the Hypox rat in data set [2] is on record as 88.6% of the activity of the. In addition, the RRA in data set [3] is reported as 163% of the activity observ.

B2: L118A + A34: rpST with leucine 118 changed to alanine, A34 background (protein, UniProt P01248 27-216, looked up, variant L118A)
Somatotropin: FPAMPLSSLFANAVLRAQHLHQLAADTYKEFERAYIPEGQRYSIQNAQAAFCFSETIPAPTGKDEAQQRSDVELLRFSLLLIQSWLGPVQFASRVFTNSLVFGTSDRVYEKLKDLEEGIQALMRELEDGSPRAGQILKQTYDKFDTNLRSDDALLKNYGLLSCFKKDLHKAETYLRVMKCRRFVESSCAF
modifications: A34 background
notes: rpST with leucine 118 changed to alanine, A34 background
B2: the “% Soluble” value in data set [1] was determined as 10%. For the same molecule, in data set [2], the Hypox rat is given as 64% of the activity of the. For the same molecule, the RRA in data set [3] was 49.5% of the activity observ.
